Measured values published in patent US20050256302A1, “Novel peptides having camp producing activity” (Japan Science and Technology Agency, priority 2002, published 2005).
Bridges are numbered along the chain shown (N, C = ends). Where no end group is shown, it is not given here.

Columns and labels:
LLC-PK1 cells = assay: cAMP production in LLC-PK1 cells by bovine or canine CRSP; type: cell-based, pig; details: 10 minutes, IBMX
Protocol: Further, with regard to the peptides of the present invention identified in cow and dog (bovine CRSP and canine CRSP), cAMP productivity of CRSP using LLC-PK1 cells by the same manner as above was investigated.
LLC-PK1 cells were incubated in a culture medium (a Dulbecco-modified Eagle medium (DMEM) containing 10% of fetal bovine serum). After two days, the cells were washed twice with a DMEM containing 0.05% of bovine serum albumin, the medium in the incubation dish was substituted with a DMEM containing 0.5 mM of 3-isobutyl-1-methylxanthine and 0.05% of bovine serum albumin (DMEM/BSA/IBMX) and incubation was conducted at 37° C. for 30 minutes. After the incubation, the medium was substituted with a DMEM/BSA/IBMX in which CRSP was dissolved so as to make it 0 M and 10^−12 to 10^−6 M and incubation was conducted at 37° C. for 10 minutes. After the incubation, the medium in the incubating dish was removed, ethanol was added thereto and the incubating dish was once frozen in a freezer for the cell lysis. […] After that, 100 μl of 1% γ-globulin and 500 μl of 25% polyethylene glycol were added, the mixture was well mixed and centrifuged and radioactivity of the precipitate was measured using a gamma-counter and compared with radioactivity of the standard curve prepared by cAMP of known concentrations whereupon the amount of cAMP was quantified.

[1] = molecular target: T1, Pig calcitonin receptor (CTR) (Sus scrofa, UniProt P25117); assay: cAMP production in COS-7 cells expressing pig calcitonin receptor; type: cell-based; details: CTR expressed in COS-7
T1 construct: expressed in transfected cells; host or cells: COS-7 (given as rhesus monkey renal cells), vector pcDNA 3.1
T1 sequence (P25117 30-498): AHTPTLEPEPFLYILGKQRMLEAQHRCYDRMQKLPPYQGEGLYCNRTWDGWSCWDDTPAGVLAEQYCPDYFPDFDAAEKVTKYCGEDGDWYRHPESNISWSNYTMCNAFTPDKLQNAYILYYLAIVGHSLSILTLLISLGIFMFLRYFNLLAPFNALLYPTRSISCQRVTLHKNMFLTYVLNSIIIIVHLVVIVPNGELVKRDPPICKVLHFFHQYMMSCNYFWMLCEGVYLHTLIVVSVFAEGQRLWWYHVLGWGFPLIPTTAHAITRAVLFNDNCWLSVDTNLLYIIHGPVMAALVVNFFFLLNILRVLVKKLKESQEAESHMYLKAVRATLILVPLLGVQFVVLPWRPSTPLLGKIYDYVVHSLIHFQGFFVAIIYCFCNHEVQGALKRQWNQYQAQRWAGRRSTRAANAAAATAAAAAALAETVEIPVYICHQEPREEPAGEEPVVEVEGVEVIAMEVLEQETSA
Protocol: Pig calcitonin receptor (CTR) was introduced into a mammalian expression vector pcDNA 3.1, expressed in rhesus monkey renal cells (COS-7) and production amount of cAMP by stimulation of CRSP was measured by radioimmunoassay. Similarly, CTR was expressed in opossum renal cells (OK cells) and production amount of cAMP by stimulation of CRSP was measured by radioimmunoassay while incorporation of sodium ion was measured by measuring the incorporation of sodium chloride having radioactivity (^22Na) by a gamma-counter.
Pig calcitonin receptor (CTR) was introduced into mammalian expression vector pcDNA 3.1 and then expressed in rhesus monkey renal cells (COS-7) whereupon production amount of cAMP by CRSP stimulation was measured by radioimmunoassay.
Pig calcitonin receptor (CTR) was introduced into a mammalian expression vector pcDNA 3.1 and expressed in rhesus monkey renal cells (COS-7) and production amount of cAMP by CRSP stimulation was measured by radioimmunoassay.
Pig calcitonin receptor (CTR) was introduced into a mammalian expression vector pcDNA 3.1, then expressed in rhesus monkey renal cells (COS-7) and production amount of cAMP by CRSP or CRSP-Gly stimulation was measured-by radioimmunoassay.

[2] = molecular target: T2, pig calcitonin receptor (CTR) (pig, UniProt P25117); assay: cell-based or functional assay
T2 sequence: T1 sequence (P25117 30-498)

## ACNTATCMTHRLAGWLSRSGSMVRSNLLPTKMGFKIFNGP-OH (not fully specified (bridges); printed as ACNTATCMTHRLAGWLSRSGSMVRSNLLPTKMGFKIFNGP-OH; cysteine pairing not given here; listed as Bos sp.) [bovine CRSP]
LLC-PK1 cells
  cAMP productivity compared with pig CRSP: nearly the same result as in the case of pig CRSP

## SCNSATCVAHWLGGLLSRAGSVANTNLLPTSMGFKVYN-OH (not fully specified (bridges); printed as SCNSATCVAHWLGGLLSRAGSVANTNLLPTSMGFKVYN-OH; cysteine pairing not given here; listed as Canis sp.) [canine CRSP]
LLC-PK1 cells
  cAMP productivity compared with pig CRSP: nearly the same result as in the case of pig CRSP

## Ser-Cys-Asn-Thr-Ala-Thr-Cys-Met-Thr-His-Arg-Leu-Val-Gly-Leu-Leu-Ser-Arg-Ser-Gly-Ser-Met-Val-Arg-Ser-Asn-Leu-Leu-Pro-Thr-Lys-Met-Gly-Phe-Lys-Val-Phe-Gly-Gly-OH (SCNTATCMTHRLVGLLSRSGSMVRSNLLPTKMGFKVFGG-OH; not fully specified (bridges); printed as Ser-Cys-Asn-Thr-Ala-Thr-Cys-Met-Thr-His-Arg-Leu-Val-Gly-Leu-Leu-Ser-Arg-Ser-Gly-Ser-Met-Val-Arg-Ser-Asn-Leu-Leu-Pro-Thr-Lys-Met-Gly-Phe-Lys-Val-Phe-Gly-Gly-OH; cysteine pairing not given here; listed as Sus sp.) [CRSP-Gly]
[1]
  cAMP productivity, CRSP compared with CRSP-Gly: nearly the same cAMP productivity

B1: pig calcitonin receptor-stimulating peptide (CRSP) (peptide)
peptide: SCNTATCMTHRLVGLLSRSGSMVRSNLLPTKMGFKVFG-NH2
modifications: disulfide 2-7; N-terminus assumed
SMILES: CSCC[C@H](NC(=O)[C@H](CCCCN)NC(=O)[C@@H](NC(=O)[C@@H]1CCCN1C(=O)[C@H](CC(C)C)NC(=O)[C@H](CC(C)C)NC(=O)[C@H](CC(N)=O)NC(=O)[C@H](CO)NC(=O)[C@H](CCCNC(=N)N)NC(=O)[C@@H](NC(=O)[C@H](CCSC)NC(=O)[C@H](CO)NC(=O)CNC(=O)[C@H](CO)NC(=O)[C@H](CCCNC(=N)N)NC(=O)[C@H](CO)NC(=O)[C@H](CC(C)C)NC(=O)[C@H](CC(C)C)NC(=O)CNC(=O)[C@@H](NC(=O)[C@H](CC(C)C)NC(=O)[C@H](CCCNC(=N)N)NC(=O)[C@H](Cc1c[nH]cn1)NC(=O)[C@@H](NC(=O)[C@H](CCSC)NC(=O)[C@@H]1CSSC[C@H](NC(=O)[C@@H](N)CO)C(=O)N[C@@H](CC(N)=O)C(=O)N[C@@H]([C@@H](C)O)C(=O)N[C@@H](C)C(=O)N[C@@H]([C@@H](C)O)C(=O)N1)[C@@H](C)O)C(C)C)C(C)C)[C@@H](C)O)C(=O)NCC(=O)N[C@@H](Cc1ccccc1)C(=O)N[C@@H](CCCCN)C(=O)N[C@H](C(=O)N[C@@H](Cc1ccccc1)C(=O)NCC(N)=O)C(C)C
[2]
  cAMP-producing activity relative to pig CGRP, LLC-PK1 cells: ~40 fold
  cAMP-producing activity relative to pig calcitonin, COS-7 cells expressing pig CTR: ~350 fold
  cAMP-producing activity relative to pig calcitonin, LLC-PK1 cells: ~6 fold
